Laboratory results from IntAct's records for PubMed 25910212.

B1: Acetylcholine receptor subunit gamma (Homo sapiens), P07510-2 (parent)
chain: MHGGQGPLLLLLLLAVCLGAQGRNQEERLLADLMQNYDPNLRPAERDSDVVNVSLKLTLTNLISLNEREEALTTNVWIEMQWCDYRLRWDPRDYEGLWVLRVPSTMVWRPDIVLENKSQTYSTNEIDLQLSQEDGQTIEWIFIDPEAFTENGEWAIQHRPAKMLLDPAAPAQEAGHQKVVFYLLIQRKPLFYVINIIAPCVLISSVAILIHFLPAKAGGQKCTVAINVLLAQTVFLFLVAKKVPETSQAVPLISKYLTFLLVVTILIVVNAVVVLNVSLRSPHTHSMARGVRKVFLRLLPQLLRMHVRPLAPAAVQDTQSRLQNGSSGWSITTGEEVALCLPRSELLFQQWQRQGLVAAALEKLEKGPELGLSQFCGSLKQAAPAIQACVEACNLIACARHQQSHFDNGNEEWFLVGRVLDRVCFLAMLSLFICGTAGIFLMAHYNRVPALPFPGDPRPYLPSPD
partner: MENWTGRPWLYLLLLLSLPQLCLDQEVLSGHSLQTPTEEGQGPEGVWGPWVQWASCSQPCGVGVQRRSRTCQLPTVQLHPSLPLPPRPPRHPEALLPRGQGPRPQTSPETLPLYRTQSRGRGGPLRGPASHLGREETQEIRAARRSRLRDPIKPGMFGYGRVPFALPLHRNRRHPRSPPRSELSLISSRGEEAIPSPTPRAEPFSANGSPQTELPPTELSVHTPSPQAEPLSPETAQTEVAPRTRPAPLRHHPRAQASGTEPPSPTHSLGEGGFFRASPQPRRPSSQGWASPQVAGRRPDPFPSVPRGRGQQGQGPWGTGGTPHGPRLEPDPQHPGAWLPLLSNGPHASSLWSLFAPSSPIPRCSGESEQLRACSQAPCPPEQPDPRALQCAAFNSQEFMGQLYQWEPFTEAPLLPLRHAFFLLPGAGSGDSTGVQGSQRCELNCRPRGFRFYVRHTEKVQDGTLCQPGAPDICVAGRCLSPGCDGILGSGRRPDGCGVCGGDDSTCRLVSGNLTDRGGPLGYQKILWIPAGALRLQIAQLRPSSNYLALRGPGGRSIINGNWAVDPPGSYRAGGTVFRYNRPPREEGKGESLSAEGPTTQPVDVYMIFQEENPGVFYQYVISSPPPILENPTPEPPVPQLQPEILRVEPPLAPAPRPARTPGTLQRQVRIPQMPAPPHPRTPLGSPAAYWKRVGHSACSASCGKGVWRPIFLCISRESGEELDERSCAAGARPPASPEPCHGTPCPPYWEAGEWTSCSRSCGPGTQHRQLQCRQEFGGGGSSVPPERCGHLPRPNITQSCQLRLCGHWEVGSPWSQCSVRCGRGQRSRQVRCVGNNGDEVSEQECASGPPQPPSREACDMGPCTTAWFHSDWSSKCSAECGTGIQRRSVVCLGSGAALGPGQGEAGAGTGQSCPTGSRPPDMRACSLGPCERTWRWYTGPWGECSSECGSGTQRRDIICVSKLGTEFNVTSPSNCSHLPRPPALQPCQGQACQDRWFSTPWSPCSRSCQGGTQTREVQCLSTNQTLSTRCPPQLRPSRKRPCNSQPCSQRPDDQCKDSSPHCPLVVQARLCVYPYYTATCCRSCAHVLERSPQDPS
B2: Tribbles homolog 3 (Homo sapiens), Q96RU7 (parent)
chain: MRATPLAAPAGSLSRKKRLELDDNLDTERPVQKRARSGPQPRLPPCLLPLSPPTAPDRATAVATASRLGPYVLLEPEEGGRAYQALHCPTGTEYTCKVYPVQEALAVLEPYARLPPHKHVARPTEVLAGTQLLYAFFTRTHGDMHSLVRSRHRIPEPEAAVLFRQMATALAHCHQHGLVLRDLKLCRFVFADRERKKLVLENLEDSCVLTGPDDSLWDKHACPAYVGPEILSSRASYSGKAADVWSLGVALFTMLAGHYPFQDSEPVLLFGKIRRGAYALPAGLSAPARCLVRCLLRREPAERLTATGILLHPWLRQDPMPLAPTRSHLWEAAQVVPDGLGLDEAREEEGDREVVLYG
partner: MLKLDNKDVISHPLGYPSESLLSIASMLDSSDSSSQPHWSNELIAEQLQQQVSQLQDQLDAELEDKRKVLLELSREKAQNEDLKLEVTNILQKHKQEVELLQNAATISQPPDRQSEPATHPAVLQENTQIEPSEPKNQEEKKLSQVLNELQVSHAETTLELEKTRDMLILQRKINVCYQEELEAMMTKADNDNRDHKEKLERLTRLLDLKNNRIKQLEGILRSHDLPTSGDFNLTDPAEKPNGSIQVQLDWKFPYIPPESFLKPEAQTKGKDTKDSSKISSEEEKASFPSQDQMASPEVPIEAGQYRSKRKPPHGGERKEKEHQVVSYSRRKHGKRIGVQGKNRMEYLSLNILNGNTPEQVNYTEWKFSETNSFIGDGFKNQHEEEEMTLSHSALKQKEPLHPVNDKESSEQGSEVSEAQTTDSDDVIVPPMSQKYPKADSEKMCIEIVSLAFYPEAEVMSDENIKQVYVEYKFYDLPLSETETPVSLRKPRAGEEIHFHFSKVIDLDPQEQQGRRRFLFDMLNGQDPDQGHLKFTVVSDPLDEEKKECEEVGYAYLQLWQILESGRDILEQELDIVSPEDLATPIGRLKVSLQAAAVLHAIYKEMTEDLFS
B3: Casein kinase I isoform epsilon (Homo sapiens), P49674 (parent)
chain: MELRVGNKYRLGRKIGSGSFGDIYLGANIASGEEVAIKLECVKTKHPQLHIESKFYKMMQGGVGIPSIKWCGAEGDYNVMVMELLGPSLEDLFNFCSRKFSLKTVLLLADQMISRIEYIHSKNFIHRDVKPDNFLMGLGKKGNLVYIIDFGLAKKYRDARTHQHIPYRENKNLTGTARYASINTHLGIEQSRRDDLESLGYVLMYFNLGSLPWQGLKAATKRQKYERISEKKMSTPIEVLCKGYPSEFSTYLNFCRSLRFDDKPDYSYLRQLFRNLFHRQGFSYDYVFDWNMLKFGAARNPEDVDRERREHEREERMGQLRGSATRALPPGPPTGATANRLRSAAEPVASTPASRIQPAGNTSPRAISRVDRERKVSMRLHRGAPANVSSSDLTGRQEVSRIPASQTSVPFDHLGK
partner: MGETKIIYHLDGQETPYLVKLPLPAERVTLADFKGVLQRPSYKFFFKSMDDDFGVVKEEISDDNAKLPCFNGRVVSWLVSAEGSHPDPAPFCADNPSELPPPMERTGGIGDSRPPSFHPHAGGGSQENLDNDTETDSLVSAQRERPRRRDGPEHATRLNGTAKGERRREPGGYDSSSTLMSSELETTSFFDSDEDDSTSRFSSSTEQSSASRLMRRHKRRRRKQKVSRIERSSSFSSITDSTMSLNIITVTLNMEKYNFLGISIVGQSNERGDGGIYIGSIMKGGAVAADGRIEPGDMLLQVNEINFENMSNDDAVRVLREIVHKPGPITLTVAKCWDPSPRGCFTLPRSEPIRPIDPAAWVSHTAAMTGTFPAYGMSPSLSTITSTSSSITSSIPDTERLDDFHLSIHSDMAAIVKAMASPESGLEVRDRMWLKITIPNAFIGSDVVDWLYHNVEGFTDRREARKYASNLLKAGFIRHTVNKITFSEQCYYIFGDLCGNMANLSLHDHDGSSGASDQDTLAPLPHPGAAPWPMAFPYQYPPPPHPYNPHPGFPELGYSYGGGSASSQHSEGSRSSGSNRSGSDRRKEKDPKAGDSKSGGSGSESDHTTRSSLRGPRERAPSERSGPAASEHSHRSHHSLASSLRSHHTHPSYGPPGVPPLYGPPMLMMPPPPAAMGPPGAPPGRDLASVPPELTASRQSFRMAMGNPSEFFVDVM
B4: Sulfotransferase 2B1 (Homo sapiens), O00204 (parent)
chain: MDGPAEPQIPGLWDTYEDDISEISQKLPGEYFRYKGVPFPVGLYSLESISLAENTQDVRDDDIFIITYPKSGTTWMIEIICLILKEGDPSWIRSVPIWERAPWCETIVGAFSLPDQYSPRLMSSHLPIQIFTKAFFSSKAKVIYMGRNPRDVVVSLYHYSKIAGQLKDPGTPDQFLRDFLKGEVQFGSWFDHIKGWLRMKGKDNFLFITYEELQQDLQGSVERICGFLGRPLGKEALGSVVAHSTFSAMKANTMSNYTLLPPSLLDHRRGAFLRKGVCGDWKNHFTVAQSEAFDRAYRKQMRGMPTFPWDEDPEEDGSPDPEPSPEPEPKPSLEPNTSLEREPRPNSSPSPSPGQASETPHPRPS
partner: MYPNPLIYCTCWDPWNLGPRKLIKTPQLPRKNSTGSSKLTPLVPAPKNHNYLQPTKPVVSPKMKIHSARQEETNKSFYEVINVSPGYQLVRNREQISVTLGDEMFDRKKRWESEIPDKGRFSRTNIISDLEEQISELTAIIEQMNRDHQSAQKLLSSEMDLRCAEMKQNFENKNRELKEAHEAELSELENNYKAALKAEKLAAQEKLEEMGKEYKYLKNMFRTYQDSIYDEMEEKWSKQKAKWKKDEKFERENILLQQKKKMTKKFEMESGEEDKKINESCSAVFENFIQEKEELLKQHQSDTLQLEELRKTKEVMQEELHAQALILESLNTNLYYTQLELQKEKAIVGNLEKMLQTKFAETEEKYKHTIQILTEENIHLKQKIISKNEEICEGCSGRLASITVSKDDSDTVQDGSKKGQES
B5: Progranulin (Homo sapiens), P28799 (parent)
chain: MWTLVSWVALTAGLVAGTRCPDGQFCPVACCLDPGGASYSCCRPLLDKWPTTLSRHLGGPCQVDAHCSAGHSCIFTVSGTSSCCPFPEAVACGDGHHCCPRGFHCSADGRSCFQRSGNNSVGAIQCPDSQFECPDFSTCCVMVDGSWGCCPMPQASCCEDRVHCCPHGAFCDLVHTRCITPTGTHPLAKKLPAQRTNRAVALSSSVMCPDARSRCPDGSTCCELPSGKYGCCPMPNATCCSDHLHCCPQDTVCDLIQSKCLSKENATTDLLTKLPAHTVGDVKCDMEVSCPDGYTCCRLQSGAWGCCPFTQAVCCEDHIHCCPAGFTCDTQKGTCEQGPHQVPWMEKAPAHLSLPDPQALKRDVPCDNVSSCPSSDTCCQLTSGEWGCCPIPEAVCCSDHQHCCPQGYTCVAEGQCQRGSEIVAGLEKMPARRASLSHPRDIGCDQHTSCPVGQTCCPSLGGSWACCQLPHAVCCEDRQHCCPAGYTCNVKARSCEKEVVSAQPATFLARSPHVGVKDVECGEGHFCHDNQTCCRDNRQGWACCPYRQGVCCADRRHCCPAGFRCAARGTKCLRREAPRWDAPLRDPALRQLL
partner: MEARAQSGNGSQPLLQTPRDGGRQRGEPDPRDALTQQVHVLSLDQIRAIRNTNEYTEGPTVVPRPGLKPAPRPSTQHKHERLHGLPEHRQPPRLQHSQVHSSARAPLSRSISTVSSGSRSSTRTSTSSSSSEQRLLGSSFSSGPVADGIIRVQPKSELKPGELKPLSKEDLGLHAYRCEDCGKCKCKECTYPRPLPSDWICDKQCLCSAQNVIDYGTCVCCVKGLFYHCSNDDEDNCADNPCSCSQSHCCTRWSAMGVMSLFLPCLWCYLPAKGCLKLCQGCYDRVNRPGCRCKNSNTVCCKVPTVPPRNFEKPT

Variants of: B1
Conditions: with ADAMTSL4, Q6UY14-3

Row | effect of a mutation on the interaction | Variant
1 | disrupting interaction strength | R86C
2 | disrupting interaction strength | V107G
3 | disrupting interaction strength | R187C

Variants of: B2
Conditions: with RPGRIP1, Q96KN7-4

Row | effect of a mutation on the interaction | Variant
4 | with no effect | Q84R

Variants of: B3
Conditions: with dvl3_human DVL3, Q92997

Row | effect of a mutation on the interaction | Variant
5 | disrupting interaction strength | S408N

Variants of: B4
Conditions: with FLACC1, Q96Q35-2

Row | effect of a mutation on the interaction | Variant
6 | with no effect | D191N
7 | with no effect | R230H

Variants of: B5
Conditions: with spy2_human SPRY2, O43597

Row | effect of a mutation on the interaction | Variant
8 | disrupting interaction strength | R432C
9 | disrupting interaction strength | P451L
10 | disrupting interaction strength | A9D
